Laboratory results published in patent US20140235820A1, “METHODS AND COMPOSITIONS FOR MODULATING THE Wnt PATHWAY” (Genentech, Inc., priority 2010, published 2014).
One block for each molecule: values may come before it. Positions of bridges follow the written chain, without caps; N, C: chain ends. Residues, ends and D or L forms follow the SMILES beside them. No end group written: not given here.

How the values were obtained:
[1] = molecular target: T1, LRP6 E1 (Homo sapiens, UniProt O75581); experiment: Synthetic peptide competition binding to LRP6 E1; settings: synthetic peptides
T1 construct: construct E1-amino acids A20-D325 of LPR6; made in house; host or cells: Tni insect cells (baculovirus, secreted)
T1 sequence (O75581 20-325): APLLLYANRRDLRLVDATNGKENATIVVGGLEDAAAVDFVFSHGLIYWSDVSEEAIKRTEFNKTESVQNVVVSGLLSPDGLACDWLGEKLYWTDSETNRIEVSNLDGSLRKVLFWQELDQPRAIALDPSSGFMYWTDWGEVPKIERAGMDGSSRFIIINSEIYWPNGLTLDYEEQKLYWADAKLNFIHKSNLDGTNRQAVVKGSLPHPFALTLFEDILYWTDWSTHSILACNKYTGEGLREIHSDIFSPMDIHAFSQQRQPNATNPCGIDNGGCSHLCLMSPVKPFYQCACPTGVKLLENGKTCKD
Procedure: Alternatively, affinities were determined by fluorescence polarization (FP). A fluorescein-modified peptide probe (30 nM) was mixed with LRP5 or LRP6 E1 domain at a concentration suitable for the affinity of the particular target-probe combination (approximately Kd). Competing test agent (protein or peptide) was then added and FP monitored as a function of concentration of the test agent Inhibition constants were obtained by fitting the resulting curves to standard equations using the program KaleidaGraph (Synergy Software).
Peptide affinities were also determined by competition with phage displaying a binding peptide (competition phage ELISA). Serial dilutions of test peptide were mixed with an appropriate (non-saturating) concentration of phage before exposing the mixture to target and allowing it to reach equilibrium. After washing to remove unbound material, bound phage were detected by incubation with anti-M13 antibody-horseradish peroxidase (HRP) conjugate and exposure to a suitable colorometric HRP substrate.
Finally, peptide affinities were also determined by competition ELISA. Maxi-Sorb plates (Nunc) were coated with streptavidin or NeutrAvidin (5 μg/mL in phosphate-buffered saline (PBS); overnight, 4° C.) then blocked with 0.2% bovine serum albumin (BSA) in PBS (1 h, room temperature). A solution (500 nM in PBS) of biotinylated E1-binding peptide Ac-[…](biotin)-am (disulfide) was added to each well for 30 min, and the wells were then washed 3× with PBS containing 0.05% Tween-20 to remove excess peptide. His-tagged E1 domain or FLAG-tagged E1E2 protein (5-10 nM final concentration) was preincubated for 15 minutes with serially diluted test peptide before addition of the mixture to wells of the assay plate for 30 min. Wells were washed and then probed for bound LRP6 by addition of Qiagen penta His-HRP conjugate or Sigma anti-FLAG M2 HRP conjugate (1:2000 dilution in PBS, 0.2% BSA, 0.05% Tween-20) for 30 min. After washing, TMB substrate was added (Kirkegaard and Perry Laboratories). Wells were quenched with 1 M H3PO4 and plates read at 450 nm. […]

[2] = system: LRP6 E1E2 variants with LRP5 BMD substitutions; experiment: Steady-state affinity for LRP6 E1E2 variants carrying LRP5 BMD substitutions; type: binding, human
Procedure: FIG. 13. Introduction of LRP5 BMD substitutions into LRP6 E1E2 lowers affinity for Wnt inhibitors. The five substitutions characterized are indicated on the y-axis. Steady-state affinity measurements were made for Wnt9b, Dkk1, and sclerostin binding to each of the LRP6 variants.
(§1) Binding kinetics were measured by biolayer interferometry using an Octet Red instrument (ForteBio) as previously described (11). Streptavidin (SA) biosensors were loaded with biotinylated hLRP6 in 50 mMTris, pH 8, 300 mM NaCl, 5% (v/v) glycerol, and 0.05% (w/v) Triton X-100. The loaded biosensors were washed in the same buffer before carrying out association and dissociation measurements for the indicated times. The Kd of each interaction was determined using steady state-analysis through the Octet Red software v6.3. Each reported value represents an average of three or more experiments at different concentrations, with a fitted experimental curve for which the square of the correlation coefficient (R^2) is above 0.96.
Cells transfected with LRP5 variants carrying BMD mutations show reduced binding to sclerostin and are less sensitive to sclerostin inhibition of Wnt10b or Wnt6 signaling (70). To further test the effects of the BMD substitutions, we introduced several of them into LRP6 E1E2, with the results shown in FIG. 13. LRP6 E1E2 Gly158Val could not be expressed in insect cells. […] Importantly, not only is the binding to sclerostin affected (70), but the binding of Dkk1 to its E1 interaction site is also impaired.

[3] = molecular target: T2, human LRP6 construct E1 (amino acids A20-D325) (human, UniProt O75581 20-325); experiment: X-ray co-crystal structure
T2 construct: range 20-325; In the Fab crystal E1 arose from E1E2 degraded beyond Arg 335; residues Ala20 to Lys324 were traced; also called LRP6 E1; E1 domain
T2 sequence (looked up): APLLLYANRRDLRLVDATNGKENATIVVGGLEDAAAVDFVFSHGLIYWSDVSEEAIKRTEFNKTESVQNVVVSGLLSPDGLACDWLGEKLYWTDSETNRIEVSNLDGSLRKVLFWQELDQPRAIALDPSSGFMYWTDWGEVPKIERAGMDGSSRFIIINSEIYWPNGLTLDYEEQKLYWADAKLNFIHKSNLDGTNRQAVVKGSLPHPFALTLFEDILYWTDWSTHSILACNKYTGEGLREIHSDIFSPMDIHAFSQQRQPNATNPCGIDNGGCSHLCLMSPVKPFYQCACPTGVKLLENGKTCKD
Description: The diffraction data were collected using a monochromatic X-ray beam (12398.1 eV) at the Advanced Light Source (ALS) beam line 5.0.2. The X-ray detection device was an ADSC quantum-210 CCD detector placed 350 mm away from the crystal. Alternatively, data were collected at Stanford Synchrotron Radiation Laboratory (SSRL71), Advanced Photon Souce (APS211DF), or in-house using a Rigaku X-ray generator model 007HF coupled to a Rigaku CCD camera (007HF/Saturn 944+). Prior to data collection, crystals were transferred into cryo-protective solutions containing 25% glycerol, followed by flash freezing in liquid nitrogen. Rotation method was applied to a single crystal for collection of the complete data set, with 1° oscillation per frame and total wedge size of 180°. The data were then indexed, integrated, and scaled using program HKL2000 (45). The LRP6 E1/Fab structure was phased by the molecular replacement (MR) method using program Phaser (CCP4, Daresbury, England). […] The search models of Fab subunits were derived from the crystal structure of an HGFA/Fab complex (46). The search model of the β-propeller domain was a homology model generated through the ESyPred3D web server (47); the structure of the extracellular domain of LDL receptor (48) was used as the homology modeling template. […] LRP6-peptide complex structures were determined by molecular replacement, using the LRP6E1 domain from the Fab complex as the search model. Peptides were built manually into the electron density. Manual rebuilding was done with the program COOT (49). Structure refinement was carried out with programs REFMAC5 (50) and PHENIX (51) using the maximum likelihood target functions, anisotropic individual B-factor refinement (peptide complexes only.

[4] = molecular target: T3, human LRP6 construct E1E2 (amino acids A20-E631) (human, UniProt O75581 20-631, biotinylated for biolayer interferometry); experiment: BLI affinity
T3 construct: range 20-631; also called LRP6 E1E2
T3 sequence (looked up): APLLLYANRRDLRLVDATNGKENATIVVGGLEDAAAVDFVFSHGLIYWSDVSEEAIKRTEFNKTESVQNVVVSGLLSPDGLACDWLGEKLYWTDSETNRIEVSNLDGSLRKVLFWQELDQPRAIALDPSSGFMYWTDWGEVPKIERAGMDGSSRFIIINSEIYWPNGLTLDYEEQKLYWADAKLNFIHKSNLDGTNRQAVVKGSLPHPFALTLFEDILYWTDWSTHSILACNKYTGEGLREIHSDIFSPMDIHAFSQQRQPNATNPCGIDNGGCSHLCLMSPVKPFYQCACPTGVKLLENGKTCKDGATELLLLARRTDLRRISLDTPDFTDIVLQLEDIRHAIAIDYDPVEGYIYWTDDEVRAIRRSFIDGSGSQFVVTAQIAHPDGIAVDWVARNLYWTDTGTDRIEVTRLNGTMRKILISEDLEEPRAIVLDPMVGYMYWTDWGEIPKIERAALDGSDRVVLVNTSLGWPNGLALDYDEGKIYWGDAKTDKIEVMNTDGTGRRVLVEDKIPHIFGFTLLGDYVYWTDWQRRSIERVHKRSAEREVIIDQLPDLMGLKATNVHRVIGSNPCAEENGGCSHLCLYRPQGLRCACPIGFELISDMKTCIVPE
Procedure: as §1, with “(R²)” for “(R^2)”

[5] = system: Wnt1-dependent signaling; experiment: Wnt-dependent TOPbrite luciferase reporter assay, cells transfected with Wnt1; type: cell-based; settings: cells stably transfected with reporter, transiently with Wnt1
Procedure: FIG. 12. Induction of a Wnt/β-catenin reporter in the presence or absence of wild-type and mutant inhibitors. Cells were transfected by Wnt1 (binds to LRP6 E1E2). Dkk1 and sclerostin variants, or the control inhibitor Fz8 CRD, were used at the indicated doses.
Wnt signaling was assessed either in mouse fibroblast L-cells or in HEK293s cells. The luciferase reporter assay in 293 cells was performed as described (52). The mouse fibroblast L-cell imaging assay was conducted essentially as described(53). Cells were treated with Wnt3a, Fz8 CRD ((US Patent Publication 20080299136; (54), LRP6, or Dkk1, or combinations of these proteins, as indicated and processed after an additional 6 h at 37° C./5% CO2.
To test whether the observed effects on binding between purified proteins were relevant to cellular signaling, Dkk1 and sclerostin activities were tested further in a Wnt-dependent TOPbrite luciferase reporter assay (52). Cells stably transfected with reporter were transfected transiently with Wnt1. The Wnt-transfected cells were treated with purified Dkk1 or sclerostin variants, and the effect on reporter induction was measured (FIG. 12). […] This is consistent with earlier observations that Wnt1 belongs to a class of Wnts signaling through the E1E2 portion of to LRP5/6 (11, 52). The Dkk1 and sclerostin mutants show activities consistent with their binding to LRP6 (FIG. 12). Sclerostin Ile119Glu (“NXI” motif) is impaired relative to wild-type in its ability to inhibit Wnt1-driven signaling, as is Dkk1 Ile42Glu.

Molecule: CC[C@H](C)[C@@H]1NC(=O)[C@H](CO)NC(=O)[C@H](CC(N)=O)NC(=O)[C@H]([C@@H](C)O)NC(=O)[C@@H](NC(=O)[C@@H](N)CO)CSSC[C@@H](C(=O)N[C@@H](Cc2ccc(O)cc2)C(=O)NCC(=O)O)NC(=O)[C@H](CCC(N)=O)NC(=O)[C@@H]2CCCN2C(=O)[C@@H]2CCCN2C1=O [BBI mimetic] (H-SCTNSIPPQCYG-OH; disulfide 2-10; N-terminus and C-terminus assumed)
binding / affinity for LRP6 E1 (in words) [1]: binds

B1: Wnt9b: Wnt9b, carrier-free protein from R&D Systems (protein, UniProt O14905 23-357, looked up)
Protein Wnt-9b: SYFGLTGREVLTPFPGLGTAAAPAQGGAHLKQCDLLKLSRRQKQLCRREPGLAETLRDAAHLGLLECQFQFRHERWNCSLEGRMGLLKRGFKETAFLYAVSSAALTHTLARACSAGRMERCTCDDSPGLESRQAWQWGVCGDNLKYSTKFLSNFLGSKRGNKDLRARADAHNTHVGIKAVKSGLRTTCKCHGVSGSCAVRTCWKQLSPFRETGQVLKLRYDSAVKVSSATNEALGRLELWAPARQGSLTKGLAPRSGDLVYMEDSPSFCRPSKYSPGTAGRVCSREASCSSLCCGRGYDTQSRLVAFSCHCQVQWCCYVECQQCVQEELVYTCKH
effect of LRP6 BMD mutations on binding to LRP6 E1E2 (in words) [2]: little to no effect
change in affinity for the LRP6 E1E2 BMD variants compared to wild type ([2]; five substitutions characterized): ≤ 5 fold

B6: Sclerostin Ile119Glu (ligand, UniProt Q9BQB4 24-213, looked up)
chain: QGWQAFKNDATEIIPELGEYPEPPPELENNKTMNRAENGGRPPHHPFETKDVSEYSCRELHFTRYVTDGPCRSAKPVTELVCSGQCGPARLLPNAEGRGKWWRPSGPDFRCIPDRYRAQRVQLLCPGGEAPRARKVRLVASCKCKRLTRFHNQSELKDFGTEAARPQKGRKPRPRARSAKANQAELENAY
notes: also called sclerostin I119E
fold loss in affinity against wild-type sclerostin [4]: 19 fold
inhibition of Wnt1-dependent signaling (reporter induction) [5]: impaired

More lines, main results first:

binding / affinity for LRP6 E1 (in words) ([1]; listed as cyclized peptide): binds
Molecule: amide-cyclized variant of the Dkk1 7-mer peptide: Dkk1 7-mer with Ser2 substituted by Lys and Asn7 by Asp, side chains joined by an amide bond (NKNAIKD; lactam 2-7)
binding / affinity for LRP6 E1 (in words) ([1]; listed as target cyclic peptide): affinity equivalent to the parent Dkk1 peptide

binding result [3]: binds
B2: Ac-CNSIKCL-am (disulfide) (peptide)
peptide: Ac-CNSIKCL-NH2
modifications: disulfide 1-6 (inferred)
notes: also called CX4C class member of Exemplary Family 2

binding result [3]: binds
B3: Ac-CNSIKLC-am (disulfide) (peptide)
peptide: Ac-CNSIKLC-NH2
modifications: disulfide 1-7 (inferred)
notes: also called CX5C class member of Exemplary Family 2

binding result [3]: binds
B4: Ac-GSLCSNRIKPDTHCSS-am (disulfide) (peptide)
peptide: Ac-GSLCSNRIKPDTHCSS-NH2
modifications: disulfide 4-14 (inferred)
notes: also called Peptide C; CX9C class member of Exemplary Family 2

binding result [3]: binds
B5: Ac-SNSIKFYA-am (peptide)
peptide: Ac-SNSIKFYA-NH2
notes: also called linear peptide from Exemplary Family 1; parent Ile peptide
